Positions count from the first letter of the chain named. Numbers in names are those of the source.
Tests used:
[1] = biological target: T1, recombinant human PAD4 (human, UniProt Q9UM07 1-663); assay: cell-based or functional assay
[2] = biological target: T1, recombinant human PAD4; assay: cell-based or functional assay; remark: listed apart in the source
[3] = biological target: T1, recombinant human PAD4; assay: SPR 37 C, captured antibody, PAD4 analyte, 2 mM EDTA
Protocol: (§1) For SPR measurements, either an anti-human capture surface or Protein A surface (Cytiva catalog #29127555) was used. Anti-human capture surface was prepared by immobilizing anti-human capture antibody (Cytiva catalog #29234600) onto flow cells of a CM5 or CM4 biosensor following the manufacturer's amine coupling protocol (Cytiva catalog #BR-1006-33). SPR experiments were conducted at 37° C. using HBS-P (150 mM NaCl, 10 mM HEPES, pH 7.6, 0.05% Tween-20) (TEKNOVA catalog #H8032) with additional 150 mM NaCl and 1 mM or 2 mM CaCl₂) (see Table 2) or 2 mM EDTA (see Table 3) as running buffer. Antibodies were diluted to 1.5 μg/mL in the running buffer, and were captured across active biosensor flow cells at 10 μL/min for 15 to 30 seconds. […] The association and dissociation of the antibodies with PAD4 were measured. One 30 second injection followed by one 15 second injection of 10 mM glycine pH 1.5 was used to regenerate the Protein A capture surface between assay cycles. For anti-human capture surface, two 30 second injections of 3 M MgCl₂ was used for regeneration. SPR measurements for mAb20 and mAb 13 SPR were done in the presence of 2 mM CaCl₂). The remaining antibodies were tested in the presence of 1 mM CaCl₂).
(§2) Rate constants kₒₙ and koff were derived from reference flow cell- and 0 nM blank-subtracted sensorgrams, and were fit to a 1:1 binding model in Biacore® Insight Evaluation software version 3.0.12.15655. Deviations from 1:1 binding model were observed, which may be caused by increased dimerization of PAD4 at higher concentrations. The equilibrium dissociation constant, KD, was calculated as the ratio of rate constants koff/kₒₙ for each PAD4 antibody. For those antibodies that were tested in multiple SPR experiments, the average value and standard deviation from two or three separate experiments are listed in Tables 2 and 3.

[4] = biological target: T1, recombinant human PAD4; assay: SPR 37 C, captured antibody, PAD4 analyte, 1 mM CaCl2
Protocol: Their binding to human PAD4 was measured by Surface Plasmon Resonance (SPR). SPR measurements were performed with a Biacore® 8K, 8K+, or T200 instrument (Cytiva). The association rate constants, kₒₙ, dissociation rate constants, koff, and equilibrium dissociation constants, KD, of the antibodies with PAD4 were determined from these SPR measurements.
as §1
as §2, with “antibody.” for “antibody. For those antibodies that were tested in multiple SPR experiments, the average value and standard deviation from two or three separate experiments are listed in Tables 2 and 3.”

[5] = biological target: extracellular matrix (ECM) proteins; assay: ECM plate ELISA (Matrigel), 1 uM antibody, A450 over wells without sample
[6] = biological target: T1, recombinant human PAD4; assay: cell-based or functional assay; remark: listed apart in the source
[7] = biological target: T1, recombinant human PAD4; assay: cell-based or functional assay; remark: listed apart in the source
[8] = biological target: T2, recombinant human GST-PAD4 fusion protein (human, UniProt Q9UM07 1-663); assay: BLI (BLITZ), GST-PAD4 on anti-GST biosensor
T2 construct: not shown: GST tag
Protocol: Affinity testing methods. Affinity of each antibody clone for a GST-PAD4 fusion protein was determined by Biolayer Interferometry (BLI) using a BLITZ instrument (Forte Bio, Menlo Park, California), using a biosensor chip (Anti-GST chip, Forte Bio, Cat. No. 18-5096). The biosensor was treated with citrate buffer, PBS, or PBS/Ca for 15 seconds; recombinant human GST-PAD4 was added on a drop holder for 80 seconds to prime the biosensor with PAD4; antibody was then added on the drop holder for 80 seconds to allow binding between antibody and the PAD4; PBS/PBS-Ca was added on the drop holder for 60 seconds to remove unbound antibody. The association rate constants, kₒₙ, dissociation rate constants, koff, and equilibrium dissociation constants, KD, were determined using BLITZ Pro Software, version 1.2.0.49.

[9] = biological target: T1, recombinant human PAD4; assay: SPR 37 C, captured antibody, PAD4 analyte, 2 mM CaCl2
Protocol: as §1, §2

[10] = biological target: T1, recombinant human PAD4; assay: SPR 37 C, captured antibody, PAD4 analyte, 2 mM CaCl2; biphasic response, approximate KD; 2 mM CaCl2, 37 C; biphasic response
Protocol: as §1, with “SPR measurements for mAb20 and mAb 13 SPR were done in the presence of 2 mM CaCl₂). The remaining antibodies were tested in the presence of 1 mM CaCl₂).” left out
Rate constants kₒₙ and koff were derived from reference flow cell- and 0 nM blank-subtracted sensorgrams, and were fit to a 1:1 binding model in Biacore® Insight Evaluation software version 3.0.12.15655. […] The equilibrium dissociation constant, KD, was calculated as the ratio of rate constants koff/kₒₙ for each PAD4 antibody. […]

T1 sequence (Q9UM07 whole entry): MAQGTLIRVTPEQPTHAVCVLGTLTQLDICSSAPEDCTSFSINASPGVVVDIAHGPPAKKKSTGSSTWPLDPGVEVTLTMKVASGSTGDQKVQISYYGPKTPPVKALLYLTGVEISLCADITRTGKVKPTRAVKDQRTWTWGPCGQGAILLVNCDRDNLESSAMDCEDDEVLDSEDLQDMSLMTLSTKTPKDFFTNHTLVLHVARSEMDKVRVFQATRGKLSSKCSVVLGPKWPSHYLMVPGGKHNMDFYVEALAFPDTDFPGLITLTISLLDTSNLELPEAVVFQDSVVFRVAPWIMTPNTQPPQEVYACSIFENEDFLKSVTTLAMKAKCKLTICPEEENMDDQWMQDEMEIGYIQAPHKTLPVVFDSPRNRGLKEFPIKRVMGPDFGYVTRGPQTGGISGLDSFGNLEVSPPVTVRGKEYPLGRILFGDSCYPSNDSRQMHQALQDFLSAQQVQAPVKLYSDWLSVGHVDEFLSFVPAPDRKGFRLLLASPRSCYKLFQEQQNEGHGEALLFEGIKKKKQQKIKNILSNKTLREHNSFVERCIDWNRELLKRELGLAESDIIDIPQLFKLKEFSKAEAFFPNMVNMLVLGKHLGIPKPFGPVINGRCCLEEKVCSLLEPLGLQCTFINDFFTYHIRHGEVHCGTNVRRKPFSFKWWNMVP

B1: hz13-5 (antibody, IgG1, V domains shown)
VH: EVLLVQSGAEVKKPGASVKLSCTSSDFNIKDHFIHWVRQAPGKGLEWMGRIDPEDDETKYAPKFQDRVTMTADTSTDTAYMELSSLRSEDTAVFYCAGYGNYEGAMDYWGQGTLVTVSS
VL: DIQMTQSPSSLSASVGDRVTITCRASENVNNYGIGFMNWFQQKPGKAPKLLIYAASRRGSGVPSRFSGSGSGTDFTLTISSLQPEDFATYFCQQSKEVPYTFGQGTKVEIK
notes: also called clone 13-based hz13-5 antibody; parent hz13-5
IC50, citrulline ELISA on peptide …, 13.5 nM rhPAD4 [1]: 0.7 nM | IC50, citrulline ELISA on peptide …, 108 nM rhPAD4 [1]: 5.02 nM | IC50 (average), PAD4 citrullination of peptide …, RapidFire MS [2]: 48.2 nM | Kd [3]: 0.1 nM | koff [3]: 0.00021 s⁻¹ | kon [3]: 2.1e+06 M⁻¹ s⁻¹ | Kd [4]: 0.1 nM | koff [4]: 0.00012 s⁻¹ | kon [4]: 1.6e+06 M⁻¹ s⁻¹ | ECM Score (1 µM) [5]: 1

B2: hz13-5 D31E (antibody, V domains shown)
VH: B1 VH with D31E
VL: DIQMTQSPSSLSASVGDRVTITCRASENVNNYGIGFMNWFQQKPGKAPKLLIYAASRRGSGVPSRFSGSGSGTDFTLTISSLQPEDFATYFCQQSKEVPYTFGQGTKVEIKR
notes: IgG1.3f; also called clone 13-based hz13-5 D31E
mean IC50, PAD4 driven H3 citrullination (ELISA), 13.5 nM PAD4, with 100 ug/ml purified IgG of NHV sera (n=6) [1]: 9 nM | mean IC50, PAD4 driven H3 citrullination (ELISA), 13.5 nM PAD4, with 100 ug/ml purified IgG of RA sera (n=21) [1]: 8.2 nM | IC50 run 1, citrulline ELISA on peptide …, 13.5 nM rhPAD4 [6]: 0.34 nM | IC50 run 1, citrulline ELISA on peptide …, 27 nM rhPAD4 [6]: 1.77 nM | IC50 run 1, citrulline ELISA on peptide …, 54 nM rhPAD4 [6]: 3.13 nM | IC50 run 1, citrulline ELISA on peptide …, 108 nM rhPAD4 [6]: 6.03 nM | IC50 run 2, citrulline ELISA on peptide …, 13.5 nM rhPAD4 [6]: 0.73 nM | IC50 run 2, citrulline ELISA on peptide …, 27 nM rhPAD4 [6]: 1.26 nM | IC50 run 2, citrulline ELISA on peptide …, 54 nM rhPAD4 [6]: 3.14 nM | IC50 run 2, citrulline ELISA on peptide …, 108 nM rhPAD4 [6]: 4.29 nM | IC50 run 3, citrulline ELISA on peptide …, 13.5 nM rhPAD4 [6]: 0.37 nM | IC50 run 3, citrulline ELISA on peptide …, 27 nM rhPAD4 [6]: 0.89 nM | IC50 run 3, citrulline ELISA on peptide …, 54 nM rhPAD4 [6]: 2.68 nM | IC50 run 3, citrulline ELISA on peptide …, 108 nM rhPAD4 [6]: 4.65 nM | Kd [3]: 0.306 nM | koff [3]: 0.000358 s⁻¹ | kon [3]: 1.17e+06 M⁻¹ s⁻¹ | Kd [4]: 0.147 nM | koff [4]: 0.000171 s⁻¹ | kon [4]: 1.32e+06 M⁻¹ s⁻¹

B3: hz13-9 (antibody, V domains shown)
VH: B1 VH with M48I, M70I, M81L
VL: B1 VL with Q3V, I21L, L82M, V108L
notes: light constant region not tied to this antibody
IC50 (average), PAD4 citrullination of peptide …, RapidFire MS [2]: 76 nM | Kd [3]: 0.1 nM | koff [3]: 0.00019 s⁻¹ | kon [3]: 2e+06 M⁻¹ s⁻¹ | Kd [4]: 0.1 nM | koff [4]: 0.00016 s⁻¹ | kon [4]: 2e+06 M⁻¹ s⁻¹ | ECM Score (1 µM) [5]: 2

B4: clone 20 (mAb20) (antibody, V domains shown)
VH: QVQLQQSGAELARPGASVKLSCKATGYTFTNYGISWVKQRTGQGLEWIGEIYPRSGNTYHNEKFKDKATLTADKSSSTAYMEFRSLTSEDSAVYFCARSMITTRYWYFDVWGKGTTVTVSS
VL: NIVLTQSPASLAVSLGQRATLSCRASESVDTYGNSFMHWYQQKPGQPPKLLIYLASNLESGVPARFSGSGSRTDFTLTIDPVEADDAATYYCQQNNEDPLTFGAGTKLELK
notes: Murine anti-human PAD4 antibody; also called murine anti-human clone 20 antibody
IC50 (average), PAD4 citrullination of peptide …, RapidFire MS [2]: 104 nM | IC50 of inhibition of PAD4 activity (% Activity against [AB Clone 20] nM) [7]: 39.6 nM | Kd [8]: < 1.71 nM | koff [8]: < 1e-06 s⁻¹ | kon [8]: 583 M⁻¹ s⁻¹ | koff [9]: 0.0062 s⁻¹ | kon [9]: 43000 M⁻¹ s⁻¹ | Kd [10]: ~150 nM
